From PMC9417184
Each block holds one substance with its values, some of them ahead of it.

Assays:
[1] = target: Gallionella sp. form II RuBisCO R98A (Gallionella sp.); assay: SEC-MALS + other: SAXS; SEC-SAXS-MALS; RuBisCO at 2 to 5 mg/ml, activated with excess NaHCO3; Shodex KW-803 column; 20 mM Hepes-OH pH 8.0, 300 mM NaCl, 10 mM MgCl2, 10 mM NaHCO3; oligomeric state of the enzyme
[2] = target: Gallionella sp. form II RuBisCO R131A (Gallionella sp.); assay: as above
[3] = target: Gallionella sp. form II RuBisCO, wild type (GWS1B) (Gallionella sp.); assay: as above
[4] = target: Insolitispirillum peregrinum form II RuBisCO, wild type (Insolitispirillum peregrinum); assay: as above
[5] = target: Rhodospirillaceae bacterium BRH_c57 form II RuBisCO (Rhodospirillaceae bacterium BRH_c57); assay: crystal structure; X-ray; RuBisCO activated and incubated with a tenfold molar excess of CABP; molecular replacement
[6] = target: Rhodospirillaceae bacterium BRH_c57 form II RuBisCO (Rhodospirillaceae bacterium BRH_c57); assay: SEC-MALS + other: SAXS; SEC-SAXS-MALS; RuBisCO at 2 to 5 mg/ml, activated with excess NaHCO3; Shodex KW-803 column; 20 mM Hepes-OH pH 8.0, 300 mM NaCl, 10 mM MgCl2, 10 mM NaHCO3; oligomeric state of the enzyme
[7] = target: Sulfurivirga caldicuralii form II RuBisCO (Sulfurivirga caldicuralii); assay: crystal structure; X-ray; RuBisCO activated and incubated with a tenfold molar excess of CABP; molecular replacement
[8] = target: Sulfurivirga caldicuralii form II RuBisCO (Sulfurivirga caldicuralii); assay: SEC-MALS + other: SAXS; SEC-SAXS-MALS; RuBisCO at 2 to 5 mg/ml, activated with excess NaHCO3; Shodex KW-803 column; 20 mM Hepes-OH pH 8.0, 300 mM NaCl, 10 mM MgCl2, 10 mM NaHCO3; oligomeric state of the enzyme

Substance: Gallionella sp. form II RuBisCO R98A (enzyme)
- stoichiometry N [1]: 2

Substance: Gallionella sp. form II RuBisCO R131A (enzyme)
- stoichiometry N [2]: 2

Substance: Gallionella sp. form II RuBisCO, wild type (GWS1B) (enzyme)
- stoichiometry N [3]: 6

The remaining lines, values ahead:

- stoichiometry N [4]: 2
Substance: Insolitispirillum peregrinum form II RuBisCO, wild type (enzyme)

- stoichiometry N [5]: 6
- stoichiometry N [6]: 6
Substance: Rhodospirillaceae bacterium BRH_c57 form II RuBisCO (enzyme)

- stoichiometry N [7]: 4
- stoichiometry N [8]: 4
Substance: Sulfurivirga caldicuralii form II RuBisCO (enzyme)
